Assay: soluble on expression in E. coli; label from the status in PepcDB or PDB records

Row | Sequence | soluble on expression in E. coli
1 | AAGAAPVDISTLPRVKVDLVKPPFVHAHDQVAKTGPRVVEFTMTIEEKKLVIDREGTEIHAMTFNGSVPGPLMVVHENDYVELRLINPDTNTLLHNIDFHAATGALGGGALTQVNPGEETTLRFKATKPGVFVYHCAPEGMVPWHVTSGMNGAIMVLPRDGLKDEKGQPLTYDKIYYVGEQDFYVPKDEAGNYKKYETPGEAYEDAVKAMRTLTPTHIVFNGAVGALTGDHALTAAVGERVLVVHSQANRDTRPHLEGGHGDYVWATGKFRNPPDLDQETWLIPGGTAGAAFYTFRQPGVYAYVNHNLIEAFELGAAGHFKVTGEWNDDLMTSVVKPASM | soluble
2 | AAGKDFVVKGKDGWAIIAGYHWFDEWGRDTFISLEGLLLVDKQYDIAKEIILKYLNLEKRGMLPNNFISYNGEPVYRGVDISLWAINAIYKTYIYSRDKNFIRKVVDKVLDIIDWYSKGNGVIYNVDNLIFHKGAPRTWMDASYDSRIVTPREGAAVEINALWYNALRVTEFLLNELGEKAEYLSEKAESVKKSFAEKFISQDGLYDYINWDNIPDKSIRPNQIFSISLPFPIIDDKSIASKILTLIESKLLRQYGLSSLSREDPNYKPVYKGDRRSRESLPQWTHMALVTRRLC | not soluble
3 | AAGVLKHRRRKEKAQRKLVGMQANLDRLSDLTAELGKQLKPLARQAEAARKAATIQSEVRDARLRIAGYQIHSLASSLKDAQSHHDSIAEKLEEVTEQLEEATGVQLEAEDALGKISPEAEKSQQLWFELSSLAERVSATQRIATDRAKNFSEVRYSGPDPDELAEKAARADAEYAEAEETVDILSERLESIQDNVAELEEQAQRADREHLAQVRAIADRREGIVRLLTLESQQREHIVAAEAELERLREAESDIAAQARSKDAEHKDCQTQAQEARSRIEPLSQSRDAALNESRAADSRLEQLREQQSDIDKSISRLESKIETLESHRMTRNAVKQWEKLQSFYGVDRYIIPQRGMEKAIAAALGPVAEALVGETTTAELQALDIESLARHIVITPGEDHDWRLATDLPHYASWLLDYVELAPEVSSTIVQILADVVLVDSYEHGREVVNHDPRLRAVCVDGTMWGHGWVAVGSAERSAVEIAAEIDQAEKDLEVARLQRVELAGTLNGAHQAADEARVRSAQAQAVCREQEIVVENFSRRVEAVSHEAEARKQELRRHALRVQEAQDRLNQLRQLWEETSDRLSRVEEDNSEEEPSTSERDKAAAALSHMRSMEVEARLSLRTAQDKAEHIRGRGDGLRRQAEYERQARARHDQAVARQRRKAEIASVVAQQCLVVAERVDDALARATQWKENAIAQRGVISARVSAAKDTVSALRTNANRLTEKSHAAELSLGQAQVRLEEAHEKIVEQLGIAISDLMRDYTPHEGFDIGAQRVRLKNAEKDLNALGKVNPLALEEFKALEERYEFLSTQLADVEQARRDLHGVINDVDTKILQ | not soluble
4 | AAHQLTIVHLEARDIDRPNPQLEIAPKEGTPIEGVLYQLYQLKSTEDGDLLAHWNSLTITELKKQAQQVFEATTNQQGKATFNQLPDGIYYGLAVKAGEKNRNVSAFLVDLSEDKVIYPKIIWSTGELDLLKVGVDGDTKKPLAGVVFELYEKNGRTPIRVKNGVHSQDIDAAKHLETDSSGHIRISGLIHGDYVLKEIETQSGYQIGQAETAVTIEKSKTVTVTIENKKVPTPKVPSR | soluble
5 | AALSNLSIRTTAHRFMEEMSMYAQAPVALAARDRLNMLYLDVVQTNSTMRRPIGSTLPLHNSSMGRACLAATPKQERYFLLEAIQKREPENWIEIKEKLDIAFDQYAEYGYCLSLGEWQQGINSVAVPLMSTKHGLYVFNCGAPSYALSTEKLIEDIGPRLKYMVNSIQDALTESL | not soluble
6 | AAPDEITTAWPVNVGPLNPHLYTPNQMFAQSMVYEPLVKYQADGSVIPWLAKSWTHSEDGKTWTFTLRDDVKFSNGEPFDAEAAAENFRAVLDNRQRHAWLELANQIVDVKALSKTELQITLKSAYYPFLQELALPRPFRFIAPSQFKNHETMNGIKAPIGTGPWILQESKLNQYDVFVRNENYWGEKPAIKKITFNVIPDPTTRAVAFETGDIDLLYGNEGLLPLDTFARFSQNPAYHTQLSQPIETVMLALNTAKAPTNELAVREALNYAVNKKSLIDNALYGTQQVADTLFAPSVPYANLGLKPSQYDPQKAKALLEKAGWTLPAGKDIREKNGQPLRIELSFIGTDALSKSMAEIIRADMRQIGADVSLIGEEESSIYARQRDGRFGMIFHRTWGAPYDPHAFLSSMRVPSHADFQAQQGLADKPLIDKEIGEVLATHDETQRQALYRDILTRLHDEAVYLPISYISMMVVSKPELGNIPYAPIATEIPFEQIKPVKP | soluble
7 | AAPSFDCGKPQVEPKKCPGRVVGGCVAHPHSWPWQVSLRTRFGMHFCGGTLISPEWVLTAAHCLEKSPRPSSYKVILGAHQEVNLEPHVQEIEVSRLFLEPTRKDIALLKLSSPAVITDKVIPACLPSPNYVVADRTECFITGWGETQGTFGAGLLKEAQLPVIENKVCNRYEFLNGRVQSTELCAGHLAGGTDSCQGDSGGPLVCFEKDKYILQGVTSWGLGCARPNKPGVYVRVSRFVTWIEGVMRNN | soluble
8 | ADIVNLQGVTGGNTYSVPAVTMDLLSGKDVAVEEFPRKLLTFKEKLGEGQFGEVHLCEVEGMEKFKDKDFALDVSANQPVLVAVKMLRADANKNARNDFLKEIKIMSRLKDPNIIHLLAVCITDDPLCMITEYMENGDLNQFLSRHEPPNSSSSDVRTVSYTNLKFMATQIASGMKYLSSLNFVHRDLATRNCLVGKNYTIKIADFGMSRNLYSGDYYRIQGRAVLPIRWMSWESILLGKFTTASDVWAFGVTLWETFTFCQEQPYSQLSDEQVIENTGEFFRDQGRQTYLPQPAICPDSVYKLMLSCWRRDTKNRPSFQEIHLLLLQQGDE | not soluble
9 | ADLLSKFDPLIAEREALLATGVRDPYAIVMDKVLSPTEAMINGRKTILLGTYNYMGMTFDPDVIAAGKQALDEFGSGTTGSRVLNGTYQGHKACEDALKEFYGTEHAIVFSTGYQANLGMISTLAGKGDYIILDADSHASIYDGCWLGDAEIVRFRHNSVEDLDKRLGRLPAEAGKLVVLEGVYSMMGDIAPLQEMVAVSKKHGAMILVDEAHGMGFFGEHGRGVFEEAGVEADVDFVVGTFSKSVGTVGGFCVSNHPKFEVLRLVCRPYVFTASLPPSVVATAATSIRKLMHAGDKRAHLWKNSRRLHQGLRDMGYKLGTETAQSAIIAVILTDMAQAVALWQGLLEAGLYVNTARPPATPAGMFLLRCSLCAEHSDEQVEQILGMFESAGRATGVIPKLAAALEHHHHHH | soluble
10 | ADPWQECMDYAVTLARQAGEVVCEAIKNEMNVMLKSSPVDLVTATDQKVEKMLISSIKEKYPSHSFIGEESVAAGEKSILTDNPTWIIDPIDGTTNFVHRFPFVAVSIGFAVNKKIEFGVVYSCVEGKMYTARKGKGAFCNGQKLQVSQQEDITKSLLVTELGSSRTPETVRMVLSNMEKLFCIPVHGIRSVGTAAVNMCLVATGGADAYYEMGIHCWDVAGAGIIVTEAGGVLMDVTGGPFDLMSRRVIAANNRILAERIAKEIQVIPLQRDDED | soluble
11 | AEGKLNDELAKNKGKIPGLKIDQKIRGQMPERGWTEDDIKNTVSNGATGTSFDKRSPKKTPPDYLGRNDPATVYGSPGKYVVVNDRTGEVTQISDKTDPGWVDDSRIQWGNKNDQ | soluble
12 | AEGVKTTAEAPAAEPALAAYVPMPRPFLFNLPGPDRARLVEIKVQLMVRGQDDEVLTQKHIPLIEDALLTTFSGADVQKLSTQAGKDELRQLALLSVQNTLQPVTGRKVVEKVLFTGFVMQ | not soluble
13 | AEIFATHLEAIARHTGPVRTLIDLGAGDCAKAERLLPCLRPQRYVPIDISTDFLGQAVARVRRAHPWLDVLPLGRDLNAGLDLPEAIDAQGRLFFYPGSSIGNLDPDAALALLASLRAQAGVSGGLLIGVDRVKARAIVEPAYDDALHLTGAFNLNLLRHVNSVLGSDFDVRDWTHVALYNEPRSRMEMHLQARSDIRVRWPGGQRRFQADERIHTENSYKYTIERFVDLLRRAGYGDIRYWSDARDWFSVFSARA | not soluble
14 | AELVSDKALESAPTVGWASQNGFTTGGAAATSDNIYIVTNISEFTSALSAGAEAKIIQIKGTIDISGGTPYTDFADQKARSQINIPANTTVIGLGTDAKFINGSLIIDGTDGTNNVIIRNVYIQTPIDVEPHYEKGDGWNAEWDAMNITNGAHHVWIDHVTISDGNFTDDMYTTKDGETYVQHDGALDIKRGSDYVTISNSLIDQHDKTMLIGHSDSNGSQDKGKLHVTLFNNVFNRVTERAPRVRYGSIHSFNNVFKGDAKDPVYRYQYSFGIGTSGSVLSEGNSFTIANLSASKACKVVKKFNGSIFSDNGSVLNGSAVDLSGCGFSAYTSKIPYIYDVQPMTTELAQSITDNAGSGKL | soluble
15 | AEPTTHFGYQNVPESQKAKKVAEVFHSVAAKYDLMNDLMSGGIHRLWKRFTIELSGVRSGNRVLDIAGGTGDLTRQFSRLVGPTGEVVLADINASMLKVGRDKLLDKGVSGNVSFVQADAEKLPFPDNHFDCVTIAFGLRNVTHKDEAIRSMLRVLKPGGRLLVLEFSKPSSNLLSKAYDAYSFSLLPLMGKLVTNDSESYRYLAESIRMHPDQETLKAMMVEAGFDRVTYHNMTGGIV | not soluble
16 | AESHWCYEVQAESSNYPCLVPVKWGGNCQKDRQSPINIVTTKAKVDKKLGRFFFSGYDKKQTWTVQNNGHSVMMLLENKASISGGGLPAPYQAKQLHLHWSDLPYKGSEHSLDGEHFAMEMHIVHEKEKGTSRNVKEAQDPEDEIAVLAFLVEAGTQVNEGFQPLVEALSNIPKPEMSTTMAESSLLDLLPKEEKLRHYFRYLGSLTTPTCDEKVVWTVFREPIQLHREQILAFSQKLYYDKEQTVSMKDNVRPLQQLGQRTVIKS | soluble
17 | AGGPGSRARAAGARGCRLRSQLVPVRALGLGHRSDELVRFRFCSGSCRRARSPHDLSLASLLGAGALRPPPGSRPVSQPCCRPTRYEAVSFMDVNSTWRTVDRLSATACGCLG | soluble
18 | AGKATANAPTDAAITAASDFAALEKACAGRLGVTLLDTASGRRIGHRQDERFPMCSTFKSMLAATVLSQAERMPALLDRRVPVGEADLLSHAPVTRRHAGKDMTVRDLCRATIITSDNTAANLLFGVVGGPPAVTAFLRASGDTVSRSDRLEPELNSFAKGDPRDTTTPAAMAATLQRVVLGEVLQPASRQQLADWLIDNETGDACLRAGLGKRWRVGDKTGSNGEDARNDIAVLWPVAGGAPWVLTAYLQAGAISYEQRASVLAQVGRIADRLIG | soluble
19 | AGRTGRLHLAIECHSCFQWLMPALDAFRGQWPDVALDLSAAFSFAPLPALVRGDLDLVITSDPQALEAVTYLPLFKYELVLAVAESNPLAANRHVMPEQLADQTLITYPVDRQRLDIFTGF | not soluble
20 | AGTHDYSTALKDSIIFFDANKCGPQAGENNVFDWRGACHTTDGSDVGVDLTGGYHDAGDHVKFGLPQGYSAAILGWSLYEFKESFDATGNTTKMLQQLKYFTDYFLKSHPNSTTFYYQVGEGNADHTYWGAPEEQTGQRPSLYKADPSSPASDILSETSAALTLMYLNYKNIDSAYATKCLNAAKELYAMGKANQGVGNGQSFYQATSFGDDLAWAATWLYTATNDSTYITDAEQFITLGNTMNENKMQDKWTMCWDDMYVPAALRLAQITGKQIYKDAIEFNFNYWKTQVTTTPGGLKWLSNWGVLRYAAAESMVMLVYCKQNPDQSLLDLAKKQVDYILGDNPANMSYIIGYGSNWCIHPHHRAANGYTYANGDNAKPAKHLLTGALVGGPDQNDKFLDDANQYQYTEVALDYNAGLVGVLAGAIKFFGGTIVNPPVKK | soluble
21 | AHHHHHHASAKWVCKICGYIYDEDAGDPDNGISPGTKFEELPDDWVCPICGAPKSEFEKLEDGSRRMDKVDLQLIKILSQNSRLTYRELAEMLGTTRQRVARKVDKLKKLGIIRKFTIIPNLEKLNYMYAILLIKVKATENIYQVAKVLKDHEDVKILELGVGKYNIIAHVLVPKDIKKAQEKVNDVIKEINGIEDLEVEFVSDIPKFELL | soluble

From the DeepSol protein solubility set
